In the test the target is T1, His-Plk1 WT (human, UniProt P53350 1-603).
T1 construct: polo-like kinase 1 (Plk1), human; PCR product of the human Plk1 gene cloned into pET-28a; also called recombinant His-Plk1; His6-tagged Plk1 WT; source: E. coli BL21 DE3, purified (Ni2+-NTA-agarose)
Description: pull-down; recombinant Chk1 incubated with recombinant His-Plk1, pulled down with Ni-beads; immunoblotting. To be noted: both partners purified.

T1 sequence (P53350 whole entry): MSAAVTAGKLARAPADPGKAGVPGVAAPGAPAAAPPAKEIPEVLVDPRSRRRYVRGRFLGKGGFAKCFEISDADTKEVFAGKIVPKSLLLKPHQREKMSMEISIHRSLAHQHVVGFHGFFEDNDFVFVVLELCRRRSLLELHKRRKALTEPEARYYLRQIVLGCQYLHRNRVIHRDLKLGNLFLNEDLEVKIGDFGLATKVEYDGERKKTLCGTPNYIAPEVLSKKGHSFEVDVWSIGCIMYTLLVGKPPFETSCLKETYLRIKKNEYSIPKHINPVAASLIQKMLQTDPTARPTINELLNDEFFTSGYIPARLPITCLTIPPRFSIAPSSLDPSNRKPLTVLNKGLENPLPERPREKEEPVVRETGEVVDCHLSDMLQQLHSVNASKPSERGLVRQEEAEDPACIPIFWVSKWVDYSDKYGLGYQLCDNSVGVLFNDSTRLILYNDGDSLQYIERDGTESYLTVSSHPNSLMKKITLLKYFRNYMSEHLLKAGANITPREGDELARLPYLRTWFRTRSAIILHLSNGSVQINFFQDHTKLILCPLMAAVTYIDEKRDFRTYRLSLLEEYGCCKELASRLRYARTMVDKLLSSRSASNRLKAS

B1: recombinant Chk1 (enzyme, human, UniProt O14757 1-476, looked up)
chain: MAVPFVEDWDLVQTLGEGAYGEVQLAVNRVTEEAVAVKIVDMKRAVDCPENIKKEICINKMLNHENVVKFYGHRREGNIQYLFLEYCSGGELFDRIEPDIGMPEPDAQRFFHQLMAGVVYLHGIGITHRDIKPENLLLDERDNLKISDFGLATVFRYNNRERLLNKMCGTLPYVAPELLKRREFHAEPVDVWSCGIVLTAMLAGELPWDQPSDSCQEYSDWKEKKTYLNPWKKIDSAPLALLHKILVENPSARITIPDIKKDRWYNKPLKKGAKRPRVTSGGVSESPSGFSKHIQSNLDFSPVNSASSEENVKYSSSQPEPRTGLSLWDTSPSYIDKLVQGISFSQPTCPDHMLLNSQLLGTPGSSQNPWQRLVKRMTRFFTKLDADKSYQCLKETCEKLGYQWKKSCMNQVTISTTDRRNNKLIFKVNLLEMDDKILVDFRLSKGDGLEFKRHFLKIKGKLIDIVSSQKIWLPAT
notes: checkpoint kinase 1 (Chk1), human recombinant kinase; the SignalChem kinase is named only for the kinase assay; also called human recombinant Chk1 kinase; checkpoint kinase 1; source: bought: SignalChem (named for the kinase assay)
Regarding B1, the binding result is “binds”.

Source of the values: PMC10482915, “Hornerin mediates phosphorylation of the polo-box domain in Plk1 by Chk1 to induce death in mitosis” (Cell Death and Differentiation, 2023).
